Measured values taken from the supplement of paper PMC10567573.

B1: IKZF1 (parent)
chain: HIKLHSGEKPFKCHLCNYACRRRD

Variants of: B1
Test: protein stability index of a GFP-peptide fusion (GPS, HEK-293T) (PSI 1-6); higher = more stable
Details: c terminus: a fixed tail appended
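Also: lentivirally expressed fusions sorted by FACS into six bins by GFP to DsRed ratio, PSI derived from sequencing read proportions per bin multiplied by bin number.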

Protein stability index of substitutions, site by site:
R22: C 1.87, W 3.09, D 1.76, M 1.87, K 1.95, T 2.5, Y 2.05, S 2.97, N 1.2, L 1.72, E 1.95, P 1.86, Q 2.2, F 2.03, G 1.5
G7: P 2.19, W 2, C 2.58, E 2.62, V 3.09, H 1.97, N 1.18, L 1.73
R23: I 2, V 2.4, W 2.21, F 2.36, M 2.4, A 2.13, T 1.48, S 1.87, E 1.8, C 2.27, D 2.18, H 2.12, P 2.02, Q 1.71
I2: W 2.22, L 2, V 1.47, R 1.96, K 1.86, P 2.13, T 2.02, Q 2.32, F 2.27, G 2.29, S 1.76, Y 1.93
A19: D 1.58, L 2, N 2.27, K 3.11, H 1.85, W 2.52, G 1.49, I 2.13, C 1.64, S 1.94, Q 1.67, V 1.4
Y18: P 1.94, E 2.02, H 1.82, W 1.16, F 2.07, N 1.88, Q 2.67, A 2.04, S 1.58, D 2.7, C 2.04, M 2.17
H14: W 2.23, C 3.78, M 1.54, K 2.39, A 1.5, N 1.69, Q 1.83, T 2.42, D 2.82, Y 1.45, R 2.26, E 1.66, P 1.83, I 1.55, F 2.32, G 1.89, V 2.23
H5: D 2.12, G 2.45, T 1.48, P 1.94, Q 1.78, F 1.97, Y 2.45, K 2.27, N 2.13, L 1.7, W 1.8, V 1.78, E 2.37, C 2.77
K12: S 1.95, D 1.68, M 2.02, L 1.82, R 2.23, C 2.32, H 1.7, T 1.68, W 1.59, E 2.29, P 1.78, A 1.77
C13: R 2.26, L 1.85, F 2.01, S 2.36, V 2.21, I 2.28, P 2.97, M 2.15, H 2.79, T 2.91, K 3, N 3.53, D 3.34, A 2.28, E 2.58
K9: V 1.43, F 1.97, Q 1.88, W 1.26, I 2.23, M 2.1, R 1.81, E 2.02, S 2.17, Y 1.58, N 1.79, T 1.42, H 3.3, L 1.86, A 2.11, G 2.12
D24: I 2.89, M 1.97, P 2.09, V 2.39, N 1.76, F 2.54, K 2.48, A 2.29, G 2.04, Q 1.73, C 2.22, R 2.22, T 2.31, E 1.99, S 1.43, Y 1.9
C20: S 1.69, E 1.83, R 1.96, T 2.08
